Target: insulin receptor (IR) of carp adipocytes (carp Catla catla)
Assay: cell-based or functional assay

B1: Purified adipocyte insulin (Adplnsl) of the carp Catla catla (ligand)
chain 1: GIVEQCCHKPCSIFELQNYCN
chain 2: PGAPQHLCGSHLVDALYLVCGPTGFFYNPK
**Q.** For B1, which “glucose uptake by adipocyte” value is on record?
**A.** The value was 2 fold.
